Reference: IntAct's records for PubMed 17937919

Tests used:
eed_mouse Eed = eed_mouse Eed (UniProt Q921E6)
eed_mouse Eed, sequence (Q921E6 whole entry, looked up): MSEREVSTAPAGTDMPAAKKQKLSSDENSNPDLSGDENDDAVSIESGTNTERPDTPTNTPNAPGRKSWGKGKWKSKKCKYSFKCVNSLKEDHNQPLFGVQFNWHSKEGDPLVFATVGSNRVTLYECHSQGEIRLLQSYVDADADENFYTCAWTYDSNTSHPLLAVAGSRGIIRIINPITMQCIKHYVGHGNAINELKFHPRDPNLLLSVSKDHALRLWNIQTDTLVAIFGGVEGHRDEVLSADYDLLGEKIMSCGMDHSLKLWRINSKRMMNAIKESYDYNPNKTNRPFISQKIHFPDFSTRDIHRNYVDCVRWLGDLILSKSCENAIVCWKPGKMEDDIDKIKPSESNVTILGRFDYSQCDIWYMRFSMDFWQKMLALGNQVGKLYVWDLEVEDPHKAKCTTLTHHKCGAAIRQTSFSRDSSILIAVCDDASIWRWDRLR

Polycomb protein EED (Mus musculus), Q921E6 L246E, sequence (Q921E6 whole entry L246E): as the sequence (Q921E6 whole entry, looked up) above, with L246E counted along it
Ezh2, Q61188-1, sequence (Q61188 whole entry): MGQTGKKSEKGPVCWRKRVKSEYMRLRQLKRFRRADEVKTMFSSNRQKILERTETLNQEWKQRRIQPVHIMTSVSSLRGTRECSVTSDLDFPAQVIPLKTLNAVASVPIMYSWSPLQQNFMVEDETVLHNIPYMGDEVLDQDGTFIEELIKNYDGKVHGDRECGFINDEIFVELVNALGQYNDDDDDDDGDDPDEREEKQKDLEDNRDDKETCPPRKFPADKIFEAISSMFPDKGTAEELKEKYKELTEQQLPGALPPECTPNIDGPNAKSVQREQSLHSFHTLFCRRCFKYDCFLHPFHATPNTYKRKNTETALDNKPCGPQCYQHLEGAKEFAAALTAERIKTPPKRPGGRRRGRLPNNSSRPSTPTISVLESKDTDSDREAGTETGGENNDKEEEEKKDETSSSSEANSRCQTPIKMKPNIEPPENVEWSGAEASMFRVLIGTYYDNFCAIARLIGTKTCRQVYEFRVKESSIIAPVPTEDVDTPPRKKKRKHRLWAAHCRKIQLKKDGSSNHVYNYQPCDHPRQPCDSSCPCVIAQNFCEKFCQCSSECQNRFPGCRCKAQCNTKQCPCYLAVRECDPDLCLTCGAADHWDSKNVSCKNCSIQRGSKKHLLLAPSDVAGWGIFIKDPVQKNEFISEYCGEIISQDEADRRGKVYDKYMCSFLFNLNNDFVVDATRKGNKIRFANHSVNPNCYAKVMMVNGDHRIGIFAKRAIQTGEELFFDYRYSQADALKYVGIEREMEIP

effect of a mutation on the interaction (eed_mouse Eed) | effect of a mutation on the interaction (Ezh2, Q61188-1) | Substance
disrupting interaction |  | Histone-lysine N-methyltransferase EZH2 (Mus musculus), Q61188-1 L56E
disrupting interaction |  | Histone-lysine N-methyltransferase EZH2 (Mus musculus), Q61188-1 N45A
disrupting interaction |  | Histone-lysine N-methyltransferase EZH2 (Mus musculus), Q61188-1 P67D
 | disrupting interaction | Polycomb protein EED (Mus musculus), Q921E6 L246E
disrupting interaction |  | Histone-lysine N-methyltransferase EZH2 (Mus musculus), Q61188-1 F42D
disrupting interaction |  | Histone-lysine N-methyltransferase EZH2 (Mus musculus), Q61188-1 I49E
